Data reported in article doi:10.1101/2023.02.07.527516.
Values belong to the substance of their own block, whether it stands above or below them.

How the values were obtained:
Assay in all cases: native gel or EMSA
[1] = target: GluA2(R), edited form of the GluA2 AMPA receptor subunit (rat, flip) (rat)
GluA1(G816A) (rat) = target: GluA1(G816A) (rat)
[2] = target: GluA1(G816A)-TARP γ-2 tandem (rat)
[3] = target: GluA1 lacking the extracellular domains (GluA1-ΔECD) (rat)
[4] = target: GluA1-TARP γ-2 tandem (rat)
[5] = target: GluA1 AMPA receptor subunit, wild type (rat, flip) (rat)

Chain of GluA2(R), edited form of the GluA2 AMPA receptor subunit (rat, flip) (P19491 22-883): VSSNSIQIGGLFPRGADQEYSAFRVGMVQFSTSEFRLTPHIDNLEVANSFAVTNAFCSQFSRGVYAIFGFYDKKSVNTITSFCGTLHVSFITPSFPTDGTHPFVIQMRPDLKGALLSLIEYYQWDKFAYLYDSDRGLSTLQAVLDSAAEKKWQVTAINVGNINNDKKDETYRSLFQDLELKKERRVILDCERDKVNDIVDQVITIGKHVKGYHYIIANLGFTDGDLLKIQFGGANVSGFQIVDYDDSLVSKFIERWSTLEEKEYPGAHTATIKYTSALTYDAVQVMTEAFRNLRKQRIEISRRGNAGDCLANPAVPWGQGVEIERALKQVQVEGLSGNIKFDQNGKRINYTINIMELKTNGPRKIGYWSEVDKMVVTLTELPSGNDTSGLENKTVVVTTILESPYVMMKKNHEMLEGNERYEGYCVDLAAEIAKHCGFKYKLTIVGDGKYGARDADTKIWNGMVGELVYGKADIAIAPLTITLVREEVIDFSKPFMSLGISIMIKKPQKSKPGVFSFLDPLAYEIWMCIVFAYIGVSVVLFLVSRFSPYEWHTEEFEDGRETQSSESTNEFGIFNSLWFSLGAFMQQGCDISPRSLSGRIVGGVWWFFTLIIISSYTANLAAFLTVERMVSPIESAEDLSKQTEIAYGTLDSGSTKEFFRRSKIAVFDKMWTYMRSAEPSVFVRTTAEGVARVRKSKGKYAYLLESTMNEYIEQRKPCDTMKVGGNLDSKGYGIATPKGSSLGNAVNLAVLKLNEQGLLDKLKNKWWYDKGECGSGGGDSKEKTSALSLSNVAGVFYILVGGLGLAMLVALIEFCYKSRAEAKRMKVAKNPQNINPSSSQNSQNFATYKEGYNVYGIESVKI

- stoichiometry N [2]: 4
Substance: GluA1(G816A)-TARP γ-2 tandem

- stoichiometry N [4]: 4
Substance: GluA1-TARP γ-2 tandem

- stoichiometry N [5]: 4
Substance: GluA1 AMPA receptor subunit, wild type (rat, flip)

More lines, now with the values behind:

Substance: GluA2(R), edited form of the GluA2 AMPA receptor subunit (rat, flip)
- stoichiometry N [1]: 4

Substance: GluA1(G816A) (receptor)
- tetramer formation (GluA1(G816A) (rat)): 50%

Substance: GluA1 lacking the extracellular domains (GluA1-ΔECD) (domain or fragment)
- stoichiometry N [3]: 4
